This is an account of results in patent US20210388087A1 (Chugai, published 2021).

B1: CE115HA000/GLS3000 N28M (antibody, IgG1, name in Kabat numbering, V domains shown)
VH: QVQLVESGGGVVQPGRSLRLSCAASGFTFSNAWMHWVRQAPGKGLEWVAQIKAKSNNYATYYAESVKGRFTISRDDSKNSLYLQMNSLKTEDTAVYYCRYVHYGAYYGVDAWGQGTTVTVSS
VL: DIVMTQSPLSLPVTPGEPASISCRSSQSLVHSMRNTYLHWYQQKPGQAPRLLIYKVSNRFSGVPDRFSGSGSGTDFTLKISRVEAEDVGVYYCGQGTQVPYTFGQGTKLEIK
notes: one-arm IgG1
B2: CE115HA000/GLS3000 N30H (antibody, IgG1, name in Kabat numbering, V domains shown)
VH: QVQLVESGGGVVQPGRSLRLSCAASGFTFSNAWMHWVRQAPGKGLEWVAQIKAKSNNYATYYAESVKGRFTISRDDSKNSLYLQMNSLKTEDTAVYYCRYVHYGAYYGVDAWGQGTTVTVSS
VL: DIVMTQSPLSLPVTPGEPASISCRSSQSLVHSNRHTYLHWYQQKPGQAPRLLIYKVSNRFSGVPDRFSGSGSGTDFTLKISRVEAEDVGVYYCGQGTQVPYTFGQGTKLEIK
notes: one-arm IgG1
B3: CE115HA000/GLS3000 N30A (antibody, IgG1, name in Kabat numbering, V domains shown)
VH: QVQLVESGGGVVQPGRSLRLSCAASGFTFSNAWMHWVRQAPGKGLEWVAQIKAKSNNYATYYAESVKGRFTISRDDSKNSLYLQMNSLKTEDTAVYYCRYVHYGAYYGVDAWGQGTTVTVSS
VL: DIVMTQSPLSLPVTPGEPASISCRSSQSLVHSNRATYLHWYQQKPGQAPRLLIYKVSNRFSGVPDRFSGSGSGTDFTLKISRVEAEDVGVYYCGQGTQVPYTFGQGTKLEIK
notes: one-arm IgG1
B4: CE115HA000/GLS3000 N28P (antibody, IgG1, name in Kabat numbering, V domains shown)
VH: QVQLVESGGGVVQPGRSLRLSCAASGFTFSNAWMHWVRQAPGKGLEWVAQIKAKSNNYATYYAESVKGRFTISRDDSKNSLYLQMNSLKTEDTAVYYCRYVHYGAYYGVDAWGQGTTVTVSS
VL: DIVMTQSPLSLPVTPGEPASISCRSSQSLVHSPRNTYLHWYQQKPGQAPRLLIYKVSNRFSGVPDRFSGSGSGTDFTLKISRVEAEDVGVYYCGQGTQVPYTFGQGTKLEIK
notes: one-arm IgG1
B5: CE115HA000/GLS3000 N30L (antibody, IgG1, name in Kabat numbering, V domains shown)
VH: QVQLVESGGGVVQPGRSLRLSCAASGFTFSNAWMHWVRQAPGKGLEWVAQIKAKSNNYATYYAESVKGRFTISRDDSKNSLYLQMNSLKTEDTAVYYCRYVHYGAYYGVDAWGQGTTVTVSS
VL: DIVMTQSPLSLPVTPGEPASISCRSSQSLVHSNRLTYLHWYQQKPGQAPRLLIYKVSNRFSGVPDRFSGSGSGTDFTLKISRVEAEDVGVYYCGQGTQVPYTFGQGTKLEIK
notes: one-arm IgG1
B6: CE115HA000/GLS3000 N30M (antibody, IgG1, name in Kabat numbering, V domains shown)
VH: QVQLVESGGGVVQPGRSLRLSCAASGFTFSNAWMHWVRQAPGKGLEWVAQIKAKSNNYATYYAESVKGRFTISRDDSKNSLYLQMNSLKTEDTAVYYCRYVHYGAYYGVDAWGQGTTVTVSS
VL: DIVMTQSPLSLPVTPGEPASISCRSSQSLVHSNRMTYLHWYQQKPGQAPRLLIYKVSNRFSGVPDRFSGSGSGTDFTLKISRVEAEDVGVYYCGQGTQVPYTFGQGTKLEIK
notes: one-arm IgG1
B7: CE115HA000/GLS3000 N30R (antibody, IgG1, name in Kabat numbering, V domains shown)
VH: QVQLVESGGGVVQPGRSLRLSCAASGFTFSNAWMHWVRQAPGKGLEWVAQIKAKSNNYATYYAESVKGRFTISRDDSKNSLYLQMNSLKTEDTAVYYCRYVHYGAYYGVDAWGQGTTVTVSS
VL: DIVMTQSPLSLPVTPGEPASISCRSSQSLVHSNRRTYLHWYQQKPGQAPRLLIYKVSNRFSGVPDRFSGSGSGTDFTLKISRVEAEDVGVYYCGQGTQVPYTFGQGTKLEIK
notes: one-arm IgG1
B8: CE115HA000/GLS3000 N30Q (antibody, IgG1, name in Kabat numbering, V domains shown)
VH: QVQLVESGGGVVQPGRSLRLSCAASGFTFSNAWMHWVRQAPGKGLEWVAQIKAKSNNYATYYAESVKGRFTISRDDSKNSLYLQMNSLKTEDTAVYYCRYVHYGAYYGVDAWGQGTTVTVSS
VL: DIVMTQSPLSLPVTPGEPASISCRSSQSLVHSNRQTYLHWYQQKPGQAPRLLIYKVSNRFSGVPDRFSGSGSGTDFTLKISRVEAEDVGVYYCGQGTQVPYTFGQGTKLEIK
notes: one-arm IgG1
B9: CE115HA000/GLS3000 N30S (antibody, IgG1, name in Kabat numbering, V domains shown)
VH: QVQLVESGGGVVQPGRSLRLSCAASGFTFSNAWMHWVRQAPGKGLEWVAQIKAKSNNYATYYAESVKGRFTISRDDSKNSLYLQMNSLKTEDTAVYYCRYVHYGAYYGVDAWGQGTTVTVSS
VL: DIVMTQSPLSLPVTPGEPASISCRSSQSLVHSNRSTYLHWYQQKPGQAPRLLIYKVSNRFSGVPDRFSGSGSGTDFTLKISRVEAEDVGVYYCGQGTQVPYTFGQGTKLEIK
notes: one-arm IgG1
B10: CE115HA000/GLS3000 N30D (antibody, IgG1, name in Kabat numbering, V domains shown)
VH: QVQLVESGGGVVQPGRSLRLSCAASGFTFSNAWMHWVRQAPGKGLEWVAQIKAKSNNYATYYAESVKGRFTISRDDSKNSLYLQMNSLKTEDTAVYYCRYVHYGAYYGVDAWGQGTTVTVSS
VL: DIVMTQSPLSLPVTPGEPASISCRSSQSLVHSNRDTYLHWYQQKPGQAPRLLIYKVSNRFSGVPDRFSGSGSGTDFTLKISRVEAEDVGVYYCGQGTQVPYTFGQGTKLEIK
notes: one-arm IgG1
B11: CE115HA000/GLS3000 N28Y (antibody, IgG1, name in Kabat numbering, V domains shown)
VH: QVQLVESGGGVVQPGRSLRLSCAASGFTFSNAWMHWVRQAPGKGLEWVAQIKAKSNNYATYYAESVKGRFTISRDDSKNSLYLQMNSLKTEDTAVYYCRYVHYGAYYGVDAWGQGTTVTVSS
VL: DIVMTQSPLSLPVTPGEPASISCRSSQSLVHSYRNTYLHWYQQKPGQAPRLLIYKVSNRFSGVPDRFSGSGSGTDFTLKISRVEAEDVGVYYCGQGTQVPYTFGQGTKLEIK
notes: one-arm IgG1
B12: CE115HA000/GLS3000 N30P (antibody, IgG1, name in Kabat numbering, V domains shown)
VH: QVQLVESGGGVVQPGRSLRLSCAASGFTFSNAWMHWVRQAPGKGLEWVAQIKAKSNNYATYYAESVKGRFTISRDDSKNSLYLQMNSLKTEDTAVYYCRYVHYGAYYGVDAWGQGTTVTVSS
VL: DIVMTQSPLSLPVTPGEPASISCRSSQSLVHSNRPTYLHWYQQKPGQAPRLLIYKVSNRFSGVPDRFSGSGSGTDFTLKISRVEAEDVGVYYCGQGTQVPYTFGQGTKLEIK
notes: one-arm IgG1
B13: CE115HA000/GLS3000 N30K (antibody, IgG1, name in Kabat numbering, V domains shown)
VH: QVQLVESGGGVVQPGRSLRLSCAASGFTFSNAWMHWVRQAPGKGLEWVAQIKAKSNNYATYYAESVKGRFTISRDDSKNSLYLQMNSLKTEDTAVYYCRYVHYGAYYGVDAWGQGTTVTVSS
VL: DIVMTQSPLSLPVTPGEPASISCRSSQSLVHSNRKTYLHWYQQKPGQAPRLLIYKVSNRFSGVPDRFSGSGSGTDFTLKISRVEAEDVGVYYCGQGTQVPYTFGQGTKLEIK
notes: one-arm IgG1
B14: CE115HA000/GLS3000 N28Q (antibody, IgG1, name in Kabat numbering, V domains shown)
VH: QVQLVESGGGVVQPGRSLRLSCAASGFTFSNAWMHWVRQAPGKGLEWVAQIKAKSNNYATYYAESVKGRFTISRDDSKNSLYLQMNSLKTEDTAVYYCRYVHYGAYYGVDAWGQGTTVTVSS
VL: DIVMTQSPLSLPVTPGEPASISCRSSQSLVHSQRNTYLHWYQQKPGQAPRLLIYKVSNRFSGVPDRFSGSGSGTDFTLKISRVEAEDVGVYYCGQGTQVPYTFGQGTKLEIK
notes: one-arm IgG1
B15: CE115HA000/GLS3000 N30G (antibody, IgG1, name in Kabat numbering, V domains shown)
VH: QVQLVESGGGVVQPGRSLRLSCAASGFTFSNAWMHWVRQAPGKGLEWVAQIKAKSNNYATYYAESVKGRFTISRDDSKNSLYLQMNSLKTEDTAVYYCRYVHYGAYYGVDAWGQGTTVTVSS
VL: DIVMTQSPLSLPVTPGEPASISCRSSQSLVHSNRGTYLHWYQQKPGQAPRLLIYKVSNRFSGVPDRFSGSGSGTDFTLKISRVEAEDVGVYYCGQGTQVPYTFGQGTKLEIK
notes: one-arm IgG1
B16: CE115HA000/GLS3000 N28V (antibody, IgG1, name in Kabat numbering, V domains shown)
VH: QVQLVESGGGVVQPGRSLRLSCAASGFTFSNAWMHWVRQAPGKGLEWVAQIKAKSNNYATYYAESVKGRFTISRDDSKNSLYLQMNSLKTEDTAVYYCRYVHYGAYYGVDAWGQGTTVTVSS
VL: DIVMTQSPLSLPVTPGEPASISCRSSQSLVHSVRNTYLHWYQQKPGQAPRLLIYKVSNRFSGVPDRFSGSGSGTDFTLKISRVEAEDVGVYYCGQGTQVPYTFGQGTKLEIK
notes: one-arm IgG1
B17: CE115HA000/GLS3000 N30I (antibody, IgG1, name in Kabat numbering, V domains shown)
VH: QVQLVESGGGVVQPGRSLRLSCAASGFTFSNAWMHWVRQAPGKGLEWVAQIKAKSNNYATYYAESVKGRFTISRDDSKNSLYLQMNSLKTEDTAVYYCRYVHYGAYYGVDAWGQGTTVTVSS
VL: DIVMTQSPLSLPVTPGEPASISCRSSQSLVHSNRITYLHWYQQKPGQAPRLLIYKVSNRFSGVPDRFSGSGSGTDFTLKISRVEAEDVGVYYCGQGTQVPYTFGQGTKLEIK
notes: one-arm IgG1
B18: CE115HA000/GLS3000 N30E (antibody, IgG1, name in Kabat numbering, V domains shown)
VH: QVQLVESGGGVVQPGRSLRLSCAASGFTFSNAWMHWVRQAPGKGLEWVAQIKAKSNNYATYYAESVKGRFTISRDDSKNSLYLQMNSLKTEDTAVYYCRYVHYGAYYGVDAWGQGTTVTVSS
VL: DIVMTQSPLSLPVTPGEPASISCRSSQSLVHSNRETYLHWYQQKPGQAPRLLIYKVSNRFSGVPDRFSGSGSGTDFTLKISRVEAEDVGVYYCGQGTQVPYTFGQGTKLEIK
notes: one-arm IgG1
B19: CE115HA000/GLS3000 N28T (antibody, IgG1, name in Kabat numbering, V domains shown)
VH: QVQLVESGGGVVQPGRSLRLSCAASGFTFSNAWMHWVRQAPGKGLEWVAQIKAKSNNYATYYAESVKGRFTISRDDSKNSLYLQMNSLKTEDTAVYYCRYVHYGAYYGVDAWGQGTTVTVSS
VL: DIVMTQSPLSLPVTPGEPASISCRSSQSLVHSTRNTYLHWYQQKPGQAPRLLIYKVSNRFSGVPDRFSGSGSGTDFTLKISRVEAEDVGVYYCGQGTQVPYTFGQGTKLEIK
notes: one-arm IgG1
B20: CE115HA000/GLS3000 N28W (antibody, IgG1, name in Kabat numbering, V domains shown)
VH: QVQLVESGGGVVQPGRSLRLSCAASGFTFSNAWMHWVRQAPGKGLEWVAQIKAKSNNYATYYAESVKGRFTISRDDSKNSLYLQMNSLKTEDTAVYYCRYVHYGAYYGVDAWGQGTTVTVSS
VL: DIVMTQSPLSLPVTPGEPASISCRSSQSLVHSWRNTYLHWYQQKPGQAPRLLIYKVSNRFSGVPDRFSGSGSGTDFTLKISRVEAEDVGVYYCGQGTQVPYTFGQGTKLEIK
notes: one-arm IgG1
B21: CE115HA000/GLS3000 N28S (antibody, IgG1, name in Kabat numbering, V domains shown)
VH: QVQLVESGGGVVQPGRSLRLSCAASGFTFSNAWMHWVRQAPGKGLEWVAQIKAKSNNYATYYAESVKGRFTISRDDSKNSLYLQMNSLKTEDTAVYYCRYVHYGAYYGVDAWGQGTTVTVSS
VL: DIVMTQSPLSLPVTPGEPASISCRSSQSLVHSSRNTYLHWYQQKPGQAPRLLIYKVSNRFSGVPDRFSGSGSGTDFTLKISRVEAEDVGVYYCGQGTQVPYTFGQGTKLEIK
notes: one-arm IgG1

The experiment deals with T1, CD3 epsilon homodimer protein (UniProt P07766 23-126).
T1 construct: also called CD3 (CD3 epsilon)
T1 sequence (P07766 23-126): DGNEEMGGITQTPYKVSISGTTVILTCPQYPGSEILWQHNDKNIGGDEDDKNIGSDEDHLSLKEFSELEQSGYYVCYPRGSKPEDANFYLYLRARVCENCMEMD
Kind of experiment: SPR, antibody over immobilised CD3e homodimer.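 Note: SPR at 25 °C with CD3 epsilon homodimer amine-coupled to a CM4 sensor chip and antibody flowed over as analyte in HBS-EP+ running buffer.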
As to B1, the “KD ratio to GLS3000” value was found to be 3.29.
Turning to B2, the “KD ratio to GLS3000” value was 1.08.
As for B3, the “KD ratio to GLS3000” value is 1.16.
For B4 the value was 4.18; for B5, 1.19.
For the molecule B6, the “KD ratio to GLS3000” value worked out at 1.2.
As to B7, the “KD ratio to GLS3000” value worked out at 1.73.
Regarding B8, the “KD ratio to GLS3000” value came to 1.
Regarding B9, the “KD ratio to GLS3000” value came to 10.6.
Take B10: the “KD ratio to GLS3000” value is 3.82.
As for B11, the “KD ratio to GLS3000” value turned out to be 3.89.
For B12 the value was 12.1; for B13, 1.35; for B14, 3.48.
The figure for B15 is 2.1; for B16 it is 3.73.
For B17 the value was 1.24.
Turning to B18, the “KD ratio to GLS3000” value amounted to 2.83.
For B19 the value was 2.67; for B20, 3.17; for B21, 4.3.
